Patent US10464978B2, “Peptides and combination of peptides for use in immunotherapy against ovarian cancer and other cancers” (immatics biotechnologies GmbH, priority 2015, dated 2019)

Each substance was assayed against HLA-A*02:01 (Homo sapiens, UniProt P04439, D140Y/D185E/D98H/E176V/E277Q/G131W/G231S/I119V/I121R/I166T/I218V/L300P/L318F/N151K/N90K/P208A/P217A/Q86G/Q94H/R138H/R169H/T345S) (assay: MHC binding assay: UV-ligand exchange with beta2m ELISA (peptide exchange yield)). Details: binding to HLA-A*02:01.
Procedure, shortened: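 Values give exchange yield, measured by β2m ELISA: 100-fold-diluted monomers bound to streptavidin plates (1h, 37° C), probed with HRP anti-β2m at 2 ug/ml and read at 450 nm after TMB. Monomers came from UV-triggered cleavage of a photolabile peptide and exchange for the test peptide.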
In the case of “499 (KIFDIDEAEEGV; listed as Homo sapiens) [compound 499]”, the “Peptide exchange (MHC class I binding score, peptide exchange yield)” value (from here on “Peptide exchange”) is reported as ““++” (≥20% = ++)”. “187 (RQISIRGIVGV; listed as Homo sapiens) [compound 187]” was tested, and the “Peptide exchange” value was ““+++” (≥50 = +++)”. “563 (WLLPYNGVTV; listed as Homo sapiens) [compound 563]” was tested, and the “Peptide exchange” value was ““+++” (≥50 = +++)”. In the case of “605 (KLYEAVPQL; listed as Homo sapiens) [compound 605]”, the “Peptide exchange” value is reported as ““+++” (≥50 = +++)”. “576 (ILLNNSGQIKL; listed as Homo sapiens) [compound 576]” was tested, and the “Peptide exchange” value was ““++++” (≥75% = ++++)”. With “212 (ALWDQDNLSV; listed as Homo sapiens) [compound 212]” the “Peptide exchange” value was ““++” (≥20% = ++)”. With “265 (LLFGGTKTV; listed as Homo sapiens) [compound 265]” the “Peptide exchange” value was ““++” (≥20% = ++)”. In the case of “371 (FLQAHLHTA; listed as Homo sapiens) [compound 371]”, the “Peptide exchange” value is reported as ““++++” (≥75% = ++++)”. For “184 (YLMDINGKMWL; listed as Homo sapiens) [compound 184]”, the “Peptide exchange” value was ““+++” (≥50 = +++)”. With “314 (ALIAEGIALV; listed as Homo sapiens) [compound 314]” the “Peptide exchange” value was ““+++” (≥50 = +++)”. For “215 (QLINHLHAV; listed as Homo sapiens) [compound 215]”, the “Peptide exchange” value was ““+++” (≥50 = +++)”. For “537 (TLAPGEVLRSV; listed as Homo sapiens) [compound 537]”, the “Peptide exchange” value was ““+++” (≥50 = +++)”. In the case of “195 (GLFADLLPRL; listed as Homo sapiens) [compound 195]”, the “Peptide exchange” value is reported as ““+++” (≥50 = +++)”. In the case of “312 (IISDLTIAL; listed as Homo sapiens) [compound 312]”, the “Peptide exchange” value is reported as ““+++” (≥50 = +++)”. “141 (YLDFSNNRL; listed as Homo sapiens) [compound 141]” was tested, and the “Peptide exchange” value was ““++” (≥20% = ++)”. For “443 (GLWEIENNPTV; listed as Homo sapiens) [compound 443]”, the “Peptide exchange” value was ““+++” (≥50 = +++)”. For “288 (NLINEINGV; listed as Homo sapiens) [compound 288]”, the “Peptide exchange” value was ““+++” (≥50 = +++)”. For “45 (SLWQDIPDV; listed as Homo sapiens) [compound 45]”, the “Peptide exchange” value was ““+++” (≥50 = +++)”. In the case of “263 (LLVSNLDFGV; listed as Homo sapiens) [compound 263]”, the “Peptide exchange” value is reported as ““+++” (≥50 = +++)”. In the case of “429 (GLVNDLARV; listed as Homo sapiens) [compound 429]”, the “Peptide exchange” value is reported as ““++” (≥20% = ++)”. In the case of “462 (KLAKQPETV; listed as Homo sapiens) [compound 462]”, the “Peptide exchange” value is reported as ““+++” (≥50 = +++)”. With “357 (SMHDLVLQV; listed as Homo sapiens) [compound 357]” the “Peptide exchange” value was ““+++” (≥50 = +++)”. For “459 (ALITEVVRL; listed as Homo sapiens) [compound 459]”, the “Peptide exchange” value was ““++” (≥20% = ++)”. With “211 (LLWPGAALL; listed as Homo sapiens) [compound 211]” the “Peptide exchange” value was ““++” (≥20% = ++)”. “347 (SLFKHDPAAWEA; listed as Homo sapiens) [compound 347]” was tested, and the “Peptide exchange” value was ““++++” (≥75% = ++++)”. For “278 (QLLDVVLTI; listed as Homo sapiens) [compound 278]”, the “Peptide exchange” value was ““++” (≥20% = ++)”. With “301 (FLVEDLVDSL; listed as Homo sapiens) [compound 301]” the “Peptide exchange” value was ““+++” (≥50 = +++)”. With “26 (ALLELAEEL; listed as Homo sapiens) [compound 26]” the “Peptide exchange” value was ““+++” (≥50 = +++)”. In the case of “247 (VLLPNDLLEKV; listed as Homo sapiens) [compound 247]”, the “Peptide exchange” value is reported as ““+++” (≥50 = +++)”. “336 (ILLTAIVQV; listed as Homo sapiens) [compound 336]” was tested, and the “Peptide exchange” value was ““+++” (≥50 = +++)”. With “461 (VMFRTPLASV; listed as Homo sapiens) [compound 461]” the “Peptide exchange” value was ““++” (≥20% = ++)”. For “92 (YLIPFTGIVGL; listed as Homo sapiens) [compound 92]”, the “Peptide exchange” value was ““++” (≥20% = ++)”. For “572 (ALADLIEKELSV; listed as Homo sapiens) [compound 572]”, the “Peptide exchange” value was ““+++” (≥50 = +++)”. With “604 (SILDRDDIFV; listed as Homo sapiens) [compound 604]” the “Peptide exchange” value was ““+++” (≥50 = +++)”. For “127 (KIGDEPPKV; listed as Homo sapiens) [compound 127]”, the “Peptide exchange” value was ““++” (≥20% = ++)”. In the case of “98 (LIIDQADIYL; listed as Homo sapiens) [compound 98]”, the “Peptide exchange” value is reported as ““+++” (≥50 = +++)”. In the case of “542 (RVWDISTVSSV; listed as Homo sapiens) [compound 542]”, the “Peptide exchange” value is reported as ““+++” (≥50 = +++)”. “601 (SAFPFPVTV; listed as Homo sapiens) [compound 601]” was tested, and the “Peptide exchange” value was ““+++” (≥50 = +++)”. In the case of “97 (SLINGSFLV; listed as Homo sapiens) [compound 97]”, the “Peptide exchange” value is reported as ““+++” (≥50 = +++)”. For “183 (FGLDLVTEL; listed as Homo sapiens) [compound 183]”, the “Peptide exchange” value was ““+++” (≥50 = +++)”. With “75 (GLLEVMVNL; listed as Homo sapiens) [compound 75]” the “Peptide exchange” value was ““+++” (≥50 = +++)”. “496 (FLVEKQPPQV; listed as Homo sapiens) [compound 496]” was tested, and the “Peptide exchange” value was ““+++” (≥50 = +++)”. For “24 (SLSDGLEEV; listed as Homo sapiens) [compound 24]”, the “Peptide exchange” value was ““++” (≥20% = ++)”. “155 (RVANLHFPSV; listed as Homo sapiens) [compound 155]” was tested, and the “Peptide exchange” value was ““+++” (≥50 = +++)”. In the case of “250 (ALSEEGLLVYL; listed as Homo sapiens) [compound 250]”, the “Peptide exchange” value is reported as ““+++” (≥50 = +++)”. In the case of “326 (FLPEALDFV; listed as Homo sapiens) [compound 326]”, the “Peptide exchange” value is reported as ““+++” (≥50 = +++)”. With “430 (HLYSSIEHLTT; listed as Homo sapiens) [compound 430]” the “Peptide exchange” value was ““+++” (≥50 = +++)”. In the case of “53 (KMIETDILQKV; listed as Homo sapiens) [compound 53]”, the “Peptide exchange” value is reported as ““++++” (≥75% = ++++)”. With “431 (SLVNVVPKL; listed as Homo sapiens) [compound 431]” the “Peptide exchange” value was ““++” (≥20% = ++)”. With “30 (LILDWVPYI; listed as Homo sapiens) [compound 30]” the “Peptide exchange” value was ““+++” (≥50 = +++)”. With “365 (YVIDQGETDVYV; listed as Homo sapiens) [compound 365]” the “Peptide exchange” value was ““+++” (≥50 = +++)”. For “438 (KLLPLAGLYL; listed as Homo sapiens) [compound 438]”, the “Peptide exchange” value was ““++++” (≥75% = ++++)”. For “609 (ALWKQLLEL; listed as Homo sapiens) [compound 609]”, the “Peptide exchange” value was ““+++” (≥50 = +++)”. With “513 (SLWPSPEQL; listed as Homo sapiens) [compound 513]” the “Peptide exchange” value was ““++” (≥20% = ++)”. “369 (GLFPEHLIDV; listed as Homo sapiens) [compound 369]” was tested, and the “Peptide exchange” value was ““+++” (≥50 = +++)”. In the case of “614 (LLLPDQPPYHL; listed as Homo sapiens) [compound 614]”, the “Peptide exchange” value is reported as ““+++” (≥50 = +++)”. For “596 (ALLDQTKTLAESAL; listed as Homo sapiens) [compound 596]”, the “Peptide exchange” value was ““+++” (≥50 = +++)”. With “229 (RLPGPLGTV; listed as Homo sapiens) [compound 229]” the “Peptide exchange” value was ““++” (≥20% = ++)”. For “402 (VLFSGALLGL; listed as Homo sapiens) [compound 402]”, the “Peptide exchange” value was ““++” (≥20% = ++)”. In the case of “622 (RLLGEEVVRVLQA; listed as Homo sapiens) [compound 622]”, the “Peptide exchange” value is reported as ““+++” (≥50 = +++)”. For “16 (VLFQGQASL; listed as Homo sapiens) [compound 16]”, the “Peptide exchange” value was ““+++” (≥50 = +++)”. In the case of “66 (FLDENIGGVAV; listed as Homo sapiens) [compound 66]”, the “Peptide exchange” value is reported as ““+++” (≥50 = +++)”. For “157 (SLNDEVPEV; listed as Homo sapiens) [compound 157]”, the “Peptide exchange” value was ““++” (≥20% = ++)”. In the case of “40 (TLLVKVFSV; listed as Homo sapiens) [compound 40]”, the “Peptide exchange” value is reported as ““+++” (≥50 = +++)”. “472 (KLLEVSDDPQV; listed as Homo sapiens) [compound 472]” was tested, and the “Peptide exchange” value was ““+++” (≥50 = +++)”. With “566 (VIADGGIQNV; listed as Homo sapiens) [compound 566]” the “Peptide exchange” value was ““++” (≥20% = ++)”. With “313 (VLFDDELLMV; listed as Homo sapiens) [compound 313]” the “Peptide exchange” value was ““+++” (≥50 = +++)”.
